Laboratory results as given in publication PMC5983913 (Science Advances, 2018).
Where two headings read alike, the source gives them in different places. Each block holds one binder with its values, some of them ahead of it.

Experiments:
[1] = molecular target: T1, N-terminal His-tagged LsrK (E. coli, UniProt P77432 1-530); assay: enzyme inhibition kinetics
T1 sequence (looked up): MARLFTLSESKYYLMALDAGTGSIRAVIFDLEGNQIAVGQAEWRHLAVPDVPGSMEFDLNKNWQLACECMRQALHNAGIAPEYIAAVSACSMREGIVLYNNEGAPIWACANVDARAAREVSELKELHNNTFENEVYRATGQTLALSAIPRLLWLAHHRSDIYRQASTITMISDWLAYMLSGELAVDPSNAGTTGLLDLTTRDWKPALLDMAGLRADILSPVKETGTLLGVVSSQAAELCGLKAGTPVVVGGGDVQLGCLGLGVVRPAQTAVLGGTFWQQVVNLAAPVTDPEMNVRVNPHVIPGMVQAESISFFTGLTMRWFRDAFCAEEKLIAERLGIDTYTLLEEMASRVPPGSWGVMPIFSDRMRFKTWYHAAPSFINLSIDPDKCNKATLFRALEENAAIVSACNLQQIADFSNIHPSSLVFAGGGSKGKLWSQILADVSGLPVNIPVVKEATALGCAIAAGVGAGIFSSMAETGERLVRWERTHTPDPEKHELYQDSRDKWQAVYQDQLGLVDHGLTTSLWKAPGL

[2] = molecular target: T1, N-terminal His-tagged LsrK; assay: enzyme inhibition kinetics; remark: listed apart in the source

Ki [1]: 320 ± 70 nM
B1: native HPr protein (expressed alone, intact form) (natural protein)
chain: not shown

Ki [2]: 1200 ± 200 nM
fold lower inhibition activity than WT HPr [2]: ~5 fold
B2: C-terminal six-His-tagged HPr H15E (natural protein)
chain: not shown

Ki [1]: 8400 ± 500 nM
B3: phosphorylated HPr (natural protein)
chain: not shown
modifications: phosphate group at the H15-ND1 atom (phosphohistidine 15); ^15N-labelled
